Data taken from article PMC10359635, “Cas1–Cas2 physically and functionally interacts with DnaK to modulate CRISPR Adaptation”.

How the values were obtained:
DnaK = DnaK (Escherichia coli (K-12 MG1655), UniProt P0A6Y8 1-638); test: EMSA; mixed with Cy5-ssDNA; EMSA: 20 nM Cy5 fork, 20 mM Tris pH 8.0, 0.1 mg/ml BSA, 7% glycerol (25% after DnaK addition); proteins diluted in 20 mM Tris pH 8.0, 100 mM NaCl, 1 mM DTT; Cas1 preincubated 5 min, then 25 min at 37 C; 5% native acrylamide gel; details: protein: recombinant; tags: N-terminal 6xHis; label: 5'-Cy5 on MW14; fork: 24 bp duplex 1:2-25 2:27-50; 3' arm of strand 1 25 nt, 5' arm of strand 2 26 nt; 1 nt 5' overhang on strand 1
Cas1 = biological target: T1, Cas1 (Escherichia coli, UniProt Q46896 1-305); test: EMSA; mixed with Cy5-ssDNA decoy; aggregates in wells at highest Cas1; EMSA: 20 nM Cy5 fork, 20 mM Tris pH 8.0, 0.1 mg/ml BSA, 7% glycerol (25% after DnaK addition); proteins diluted in 20 mM Tris pH 8.0, 100 mM NaCl, 1 mM DTT; Cas1 preincubated 5 min, then 25 min at 37 C; 5% native acrylamide gel; details: protein: recombinant; tags: C-terminal Strep-tag II; chain copies: 2; label: 5'-Cy5 on MW14; fork: 24 bp duplex 1:2-25 2:27-50; 3' arm of strand 1 25 nt, 5' arm of strand 2 26 nt; 1 nt 5' overhang on strand 1
T1 sequence: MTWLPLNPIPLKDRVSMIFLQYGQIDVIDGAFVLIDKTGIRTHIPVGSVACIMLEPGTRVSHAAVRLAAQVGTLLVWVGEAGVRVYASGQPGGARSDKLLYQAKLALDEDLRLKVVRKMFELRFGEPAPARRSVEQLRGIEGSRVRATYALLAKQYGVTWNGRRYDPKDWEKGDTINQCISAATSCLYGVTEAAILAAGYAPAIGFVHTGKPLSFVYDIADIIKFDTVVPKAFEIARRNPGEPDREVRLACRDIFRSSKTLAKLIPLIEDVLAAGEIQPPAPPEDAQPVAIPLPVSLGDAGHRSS

DnaK S427P = DnaK S427P (Escherichia coli (K-12 MG1655), UniProt P0A6Y8 1-638, S427P); test: EMSA; EMSA: 20 nM Cy5 fork, 20 mM Tris pH 8.0, 0.1 mg/ml BSA, 7% glycerol (25% after DnaK addition); proteins diluted in 20 mM Tris pH 8.0, 100 mM NaCl, 1 mM DTT; Cas1 preincubated 5 min, then 25 min at 37 C; 5% native acrylamide gel; details: protein: recombinant; tags: N-terminal 6xHis; label: 5'-Cy5 on MW14; fork: 24 bp duplex 1:2-25 2:27-50; 3' arm of strand 1 25 nt, 5' arm of strand 2 26 nt; 1 nt 5' overhang on strand 1

B1: Fork (flayed duplex MW12/MW14) (dsDNA)
DNA 1: GTCGGATCCTCTAGACAGCTCCATGATCACTGGCACTGGTAGAATTCGGC
DNA 2: CAACGTCATAGACGATTACATTGCTACATGGAGCTGTCTAGAGGATCCGA
B1: no binding (DnaK); binds (Cas1); no binding (DnaK S427P).
